Tests used:
Assay in all cases: receptor-Fc IP
VEGFR-2-Fc = target: T1, VEGFR-2-Fc (UniProt P35968 20-322)
T1 construct: domain: first 3 Ig domains; conditioned supernatant of 293T cells; also called VEGFR-2-Fc fusion protein; not shown: Fc fragment of the pIg vector
In short: (§1)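 fusion protein at 400 ng/ml in an IP mix (PBS, 1.5% BSA, 0.06% Tween 20, 3 μg/ml heparin) was combined with sample supernatant at a 1:2 ratio. Bound ligand captured by immunoprecipitation with pentahistidine antibody.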

VEGFR-3-Fc = target: T2, VEGFR-3-Fc (UniProt P35916 25-328)
T2 construct: domain: first three Ig domains; conditioned supernatant of 293T cells; also called VEGFR-3-Fc fusion protein; not shown: Fc fragment of the pIg vector
T2 sequence (looked up): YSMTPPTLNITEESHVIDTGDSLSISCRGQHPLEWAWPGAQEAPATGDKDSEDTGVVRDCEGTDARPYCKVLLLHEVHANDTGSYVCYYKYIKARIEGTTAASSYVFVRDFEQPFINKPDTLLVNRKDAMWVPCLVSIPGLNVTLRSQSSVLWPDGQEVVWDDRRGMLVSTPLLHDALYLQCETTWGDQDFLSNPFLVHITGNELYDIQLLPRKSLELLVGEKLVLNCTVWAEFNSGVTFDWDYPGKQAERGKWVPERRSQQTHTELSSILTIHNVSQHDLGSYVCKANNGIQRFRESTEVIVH
In short: as §1

VEGFR-1-Fc = target: T3, VEGFR-1-Fc (UniProt P17948 27-338)
T3 construct: domain: first three Ig domains; expressed in Drosophila S2 cells, purified on Protein A sepharose; also called VEGFR-1-Fc fusion protein; not shown: Fc fragment from the Signal-pIgPlus vector
T3 sequence (P17948 27-338): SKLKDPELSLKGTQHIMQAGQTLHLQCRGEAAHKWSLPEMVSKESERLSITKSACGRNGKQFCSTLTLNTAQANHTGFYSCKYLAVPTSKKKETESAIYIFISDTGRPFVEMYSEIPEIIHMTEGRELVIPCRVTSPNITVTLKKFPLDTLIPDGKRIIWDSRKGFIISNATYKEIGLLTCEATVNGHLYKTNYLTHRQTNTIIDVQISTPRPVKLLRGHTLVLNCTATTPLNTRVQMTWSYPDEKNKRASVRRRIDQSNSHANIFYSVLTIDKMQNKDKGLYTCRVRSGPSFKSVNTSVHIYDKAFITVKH
In short: as §1

Measured: binding result

T1 sequence (P35968 20-322): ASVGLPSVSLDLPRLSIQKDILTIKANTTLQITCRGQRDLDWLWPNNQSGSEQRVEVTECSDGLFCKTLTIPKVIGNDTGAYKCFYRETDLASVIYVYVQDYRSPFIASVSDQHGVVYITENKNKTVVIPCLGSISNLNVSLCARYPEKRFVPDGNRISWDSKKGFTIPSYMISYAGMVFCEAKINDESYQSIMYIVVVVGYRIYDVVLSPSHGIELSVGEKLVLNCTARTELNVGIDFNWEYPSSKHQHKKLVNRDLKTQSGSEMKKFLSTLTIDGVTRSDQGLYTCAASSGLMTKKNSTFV

B1: 54-9 (ligand)
chain: AHYNTEILKSIDNEWRKTQCMPIETLVDIFQEFGVATNTFFKPSCVPLMRCGGCCNDEGLECVPTEESNITMQIMRITVPLSQGPKPVTISFLQHNKCECRPKKD
no binding: all assays above

B2: 54-11 (ligand)
chain: AHYNTEILKSIDNEWRKTQCMPIETLVDIFQEFGVATNTFFKPSCVPLMRCGGCCNSEGLQCVPTEESNITMQIMRITVPLSQGPKPVTISFLQHNKCECRPKKD
no binding: all assays above

B3: 54-13 (ligand)
chain: AHYNTEILKSIDNEWRKTQCMPIETLVDIFQEFGVATNTFFKPSCVPLMRCGGCCNDEGLECVPTEESNITMQIMRITVPLSQGPKPVTISFANHTSCRCMSKLD
no binding: all assays above

B4: 54-15 (ligand)
chain: AHYNTEILKSIDNEWRKTQCMPIETLVDIFQEFGVATNTFFKPSCVPLMRCGGCCNSEGLQCVPTEESNITMQIMRITVPLSQGPKPVTISFANHTSCRCMSKLD
no binding: all assays above

B5: 44-9 (ligand)
chain: AHYNTEILKFMDVYQRSYCHPREVCIDVGKEFGVATNTFFKPSCVPLMRCGGCCNDEGLECVPTEESNITMQIMRITVPLSQGPKPVTISFLQHNKCECRPKKD
no binding: all assays above

B6: 44-11 (ligand)
chain: AHYNTEILKFMDVYQRSYCHPREVCIDVGKEFGVATNTFFKPSCVPLMRCGGCCNSEGLQCVPTEESNITMQIMRITVPLSQGPKPVTISFLQHNKCECRPKKD
no binding: all assays above

B7: 44-15 (ligand)
chain: AHYNTEILKFMDVYQRSYCHPREVCIDVGKEFGVATNTFFKPSCVPLMRCGGCCNSEGLQCVPTEESNITMQIMRITVPLSQGPKPVTISFANHTSCRCMSKLD
no binding: all assays above

B8: 44-13 (ligand)
chain: AHYNTEILKFMDVYQRSYCHPREVCIDVGKEFGVATNTFFKPSCVPLMRCGGCCNDEGLECVPTEESNITMQIMRITVPLSQGPKPVTISFANHTSCRCMSKLD
no binding: all assays above

B9: 64-11 (ligand)
chain: GQNHHEVVKFMDVYQRSYCHPREVCIDVGKEFGVATNTFFKPSCVPLMRCGGCCNSEGLQCVPTEESNITMQIMRITVPLSQGPKPVTISFLQHNKCECRPKKD
no binding: all assays above

B10: 64-9 (ligand)
chain: GQNHHEVVKFMDVYQRSYCHPREVCIDVGKEFGVATNTFFKPSCVPLMRCGGCCNDEGLECVPTEESNITMQIMRITVPLSQGPKPVTISFLQHNKCECRPKKD
no binding: all assays above

B11: 64-2 (ligand)
chain: GQNHHEVVKFMDVYQRSYCHPREVCIDVGKEFGVATNTFFKPSCVPLMRCGGCCNDEGLECMNTSTSYLSKTLFEIKPHQGQHIGEMSFLQHNKCECRPKKD
no binding: all assays above

B12: 64-6 (ligand)
chain: GQNHHEVVKFMDVYQRSYCHPREVCIDVGKEFGVATNTFFKPSCVPLMRCGGCCNDEGLECMNTSTSYLSKTLFEIKPHQGQHIGEMSFANHTSCRCMSKLD
no binding: all assays above

B13: 64-4 (ligand)
chain: GQNHHEVVKFMDVYQRSYCHPREVCIDVGKEFGVATNTFFKPSCVPLMRCGGCCNSEGLQCMNTSTSYLSKTLFEIKPHQGQHIGEMSFLQHNKCECRPKKD
no binding: all assays above

B14: 64-1 (ligand)
chain: GQNHHEVVKFMDVYQRSYCHPREVCIDVGKEFGVATNTFFKPSCVPLMRCGGCCNDEGLECVPTEESNITMQIMRIKPHQGQHIGEMSFLQHNKCECRPKKD
no binding: all assays above

B15: 64-5 (ligand)
chain: GQNHHEVVKFMDVYQRSYCHPREVCIDVGKEFGVATNTFFKPSCVPLMRCGGCCNDEGLECVPTEESNITMQIMRIKPHQGQHIGEMSFANHTSCRCMSKLD
no binding: all assays above

B16: 64-3 (ligand)
chain: GQNHHEVVKFMDVYQRSYCHPREVCIDVGKEFGVATNTFFKPSCVPLMRCGGCCNSEGLQCVPTEESNITMQIMRIKPHQGQHIGEMSFLQHNKCECRPKKD
no binding: all assays above

B17: 64-7 (ligand)
chain: GQNHHEVVKFMDVYQRSYCHPREVCIDVGKEFGVATNTFFKPSCVPLMRCGGCCNSEGLQCVPTEESNITMQIMRIKPHQGQHIGEMSFANHTSCRCMSKLD
no binding: all assays above

B18: 54-10 (ligand)
chain: AHYNTEILKSIDNEWRKTQCMPIETLVDIFQEFGVATNTFFKPSCVPLMRCGGCCNDEGLECMNTSTSYLSKTLFEITVPLSQGPKPVTISFLQHNKCECRPKKD
no binding: all assays above

B19: 54-1 (ligand)
chain: AHYNTEILKSIDNEWRKTQCMPIETLVDIFQEFGVATNTFFKPSCVPLMRCGGCCNDEGLECVPTEESNITMQIMRIKPHQGQHIGEMSFLQHNKCECRPKKD
no binding: all assays above

B20: 54-3 (ligand)
chain: AHYNTEILKSIDNEWRKTQCMPIETLVDIFQEFGVATNTFFKPSCVPLMRCGGCCNSEGLQCVPTEESNITMQIMRIKPHQGQHIGEMSFLQHNKCECRPKKD
no binding: all assays above

B21: 44-10 (ligand)
chain: AHYNTEILKFMDVYQRSYCHPREVCIDVGKEFGVATNTFFKPSCVPLMRCGGCCNDEGLECMNTSTSYLSKTLFEITVPLSQGPKPVTISFLQHNKCECRPKKD
no binding: all assays above

B22: 44-12 (ligand)
chain: AHYNTEILKFMDVYQRSYCHPREVCIDVGKEFGVATNTFFKPSCVPLMRCGGCCNSEGLQCMNTSTSYLSKTLFEITVPLSQGPKPVTISFLQHNKCECRPKKD
no binding: all assays above

B23: 44-16 (ligand)
chain: AHYNTEILKFMDVYQRSYCHPREVCIDVGKEFGVATNTFFKPSCVPLMRCGGCCNSEGLQCMNTSTSYLSKTLFEITVPLSQGPKPVTISFANHTSCRCMSKLD
no binding: all assays above

From patent US20080058263A1 (published 2008)
